These results are taken from patent US6242195.

The target of test [1] is CD20 antigen (Homo sapiens (Human)) (UniProt P11836).
Test [2] has as its target C1q (human) (UniProt P02745).
In test [3] the target is C1q (human) (UniProt P02745). As to the kind of experiment: C1q binding ELISA, antibody coated. (An ELISA detects its analyte on a solid surface through an enzyme-linked reagent.)
The target in test [4] is CD20 antigen (Homo sapiens (Human)) (UniProt P11836). As to the kind of experiment: flow cytometry on WIL2-S cells, EC50 against C2B8 reference. A general note: In flow cytometry, cells or beads pass a laser one at a time.
Test [5] concerns the target C1q (human) (UniProt P02745). As to the kind of experiment: C1q binding ELISA, antibody coated, up to 100 µg/ml.
Test [6] concerns the target FcγRIIb α subunit ECD-6-His-GST fusion protein (Homo sapiens (Human)) (UniProt P31994). In words: ELISA, E27:chimeric IgE:VEGF complex on coated receptor.
The target in test [7] is FcγRIIa α subunit ECD-6-His-GST fusion protein (Homo sapiens (Human)) (UniProt P12318). Described as above.
Test [8] has as its target FcγRIIIa α subunit ECD-6-His-GST fusion protein (Homo sapiens (Human)) (UniProt P08637). The test is described as above.
In test [9] the target is FcγRI α subunit-GST fusion (Homo sapiens (Human)) (UniProt P12314). As to the kind of experiment: ELISA, monomeric IgG on coated FcγRI α subunit-GST.
Chain of FcγRI α subunit-GST fusion (Homo sapiens (Human)) (P12314 16-292): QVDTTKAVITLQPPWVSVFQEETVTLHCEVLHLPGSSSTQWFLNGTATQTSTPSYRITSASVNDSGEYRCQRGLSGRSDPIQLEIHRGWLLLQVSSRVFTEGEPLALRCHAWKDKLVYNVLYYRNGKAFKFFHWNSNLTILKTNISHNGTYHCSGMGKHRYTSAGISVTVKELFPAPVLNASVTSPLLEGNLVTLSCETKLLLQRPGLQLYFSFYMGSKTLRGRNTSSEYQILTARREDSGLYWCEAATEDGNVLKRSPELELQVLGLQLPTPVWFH

Chain of FcγRIIIa α subunit ECD-6-His-GST fusion protein (Homo sapiens (Human)) (P08637 17-208): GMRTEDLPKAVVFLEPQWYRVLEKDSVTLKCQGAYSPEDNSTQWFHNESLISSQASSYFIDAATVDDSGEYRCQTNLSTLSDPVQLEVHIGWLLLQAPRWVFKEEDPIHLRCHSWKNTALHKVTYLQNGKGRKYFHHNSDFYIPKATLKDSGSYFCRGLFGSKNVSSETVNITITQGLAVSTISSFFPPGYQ

Consider C2B8 mutant E318A (antibody), for which the CDC, percentage of the wild type (% of wild type) (in [1]; in the test with C1q (human) [2]) was 108 throughout. Moreover, in the test with C1q (human) [3], the decrease in binding to C1q against wild type C2B8 is 30%. Moreover, the CD20 binding, percentage of the wild type (% of wild type) in test [4] worked out at 89.
As to C2B8 mutant K320A (antibody), the CDC, percentage of the wild type (% of wild type) (in [1]; with C1q (human) [2]) was 108 throughout. The substance also came in with a CD20 binding, percentage of the wild type (% of wild type) in test [4] of 102.
Turning to C2B8 mutant P329A (antibody), the CD20 binding, percentage of the wild type (% of wild type) in test [4] came out at 112.
On to C2B8 mutant P331A (antibody), for which the fold lower binding to C1q than wild type C2B8 with C1q (human) [5] amounted to 60 fold lower. This substance also gave a CD20 binding, percentage of the wild type (% of wild type) in [4] of 103.
Take E27 anti-IgE antibody, Fc mutant E318A: the binding, percentage of the wild type (% of wild type) in test [6] is 106; in test [7], 113; in test [8], 104; in test [9], 93.
With E27 anti-IgE antibody, Fc mutant K320A, the binding, percentage of the wild type (% of wild type) in test [6] worked out at 83; in test [8], 72; in test [9], 102.
In the case of E27 anti-IgE antibody, Fc mutant K322A, the results for the binding, percentage of the wild type (% of wild type) in test [6] and in test [7] were 101 and 109, respectively.
Regarding E27 anti-IgE antibody, Fc mutant P329A, the binding, percentage of the wild type (% of wild type) in test [8] turned out to be 85; in test [9], 104.
Turning to E27 anti-IgE antibody, Fc mutant P331A, the binding, percentage of the wild type (% of wild type) is 58 in test [6], 86 in test [7], 73 in test [8] and 74 in test [9].
